Values of other authors as cited in PMC12332068.

Legend:
[1] = target: Bzz1 SH3#1 (Saccharomyces cerevisiae) (UniProt P38822); test: BLI
[2] = target: Bzz1 SH3#1-2 (Saccharomyces cerevisiae) (UniProt P38822); test: BLI

Kd [1]: 7.5 µM
Kd [2]: 0.087 µM
Substance: Las17 300-422 (from UniProt Q12446)
